Experiments:
GDF11 [1] = biological target: T1, GDF11 (Homo sapiens, UniProt O95390); test: A204 cell-based pGL3(CAGA)12 reporter gene assay, signaling by GDF11; details: A204 reporter gene assay
T1 sequence (O95390 299-407): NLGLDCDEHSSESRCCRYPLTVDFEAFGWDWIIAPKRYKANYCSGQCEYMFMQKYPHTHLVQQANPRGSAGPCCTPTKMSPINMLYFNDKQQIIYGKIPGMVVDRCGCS
From the text: (§1) To determine activity of variant ActRIIB-Fc polypeptides, an A204 cell-based assay was used to compare effects among variant ActRIIB-Fc polypeptides on signaling by activin A, activin B, GDF8, GDF11, BMP9, and BMP10, in comparison to ActRIIB-G1Fc. In brief, this assay uses a human A204 rhabdomyosarcoma cell line (ATCC®: HTB-82™) derived from muscle and the reporter vector pGL3(CAGA)12 (Dennler et al., 1998, EMBO 17: 3091-3100) as well as a Renilla reporter plasmid (pRLCMV) to control for transfection efficiency. The CAGA12 motif is present in TGF-β responsive genes (e.g., PAI-1 gene), so this vector is of general use for ligands that can signal through Smad2/3, including activin A. GDF11, and BMP9.
(§2) On day 1. A204 cells were transferred into one or more 48-well plates. On day 2, these cells were transfected with 10 μg pGL3(CAGA)12 or pGL3(CAGA)12(10 μg)+pRLCMV (1 pg) and Fugene. On day 3, ligands diluted in medium containing 0.1% BSA were preincubated with ActRIIB-Fc polypeptides for 1 hr before addition to cells. Approximately six hour later, the cells were rinsed with PBS and lysed. Cell lysates were analyzed in a luciferase assay to determine the extent of Smad activation.
(§3) This assay was used to screen variant ActRIIB-Fc polypeptides for inhibitory effects on cell signaling by activin A, activin B. GDF8, GDF11. BMP9, and BMP10. Potencies of homodimeric Fc fusion polypeptides incorporating amino acid substitutions in the human ActRIIB extracellular domain were compared with that of an Fc fusion polypeptide comprising unmodified human ActRIIB extracellular domain, ActRIIB-G1Fc. For some variants tested, it was not possible to calculate an accurate IC50, but signs of inhibition in the slope of the curves were detectable. For these variants, an estimate was included of the order of magnitude of the relative IC50, i.e. >10 nM or >100 nM instead of a definite number. Such data points are indicated by a (*) in Table 3 below. For some variants tested, there was no detectable inhibition in the slope of the curves over the concentration range tested, which is indicated by “ND” in Table 4.
as §1, with “A,” for “A, activin B, GDF8,”, “GDF11,” for “GDF11, BMP9,”, “and BMP9.” for “and BMP10, in comparison to ActRIIB-G1Fc.”, “(Dennler el” for “(Dennler et”, “activin A,” for “activin A.”
as §2, with “1, A-204” for “1. A204”, “μg)” for “pg)”
(§4) This assay was used to screen variant ActRIIB-Fc polypeptides for inhibitory effects on cell signaling by activin A, GDF11, and BMP9. Potencies of homodimeric Fc fusion polypeptides incorporating amino acid substitutions in the human ActRIIB extracellular domain were compared with that of an Fc fusion polypeptide comprising unmodified human ActRIIB extracellular domain.

Activin A = biological target: T2, Activin A (Homo sapiens, UniProt P08476); test: A204 cell-based pGL3(CAGA)12 reporter gene assay, signaling by activin A; details: A204 reporter gene assay
T2 sequence (P08476 311-426): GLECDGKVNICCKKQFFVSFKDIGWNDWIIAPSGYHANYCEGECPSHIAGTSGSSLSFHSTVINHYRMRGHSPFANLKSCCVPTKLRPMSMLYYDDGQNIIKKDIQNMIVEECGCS
From the text: as §1, §2, §3
as §1, with “A,” for “A, activin B, GDF8,”, “GDF11,” for “GDF11, BMP9,”, “and BMP9.” for “and BMP10, in comparison to ActRIIB-G1Fc.”, “(Dennler el” for “(Dennler et”, “activin A,” for “activin A.”
as §2, with “1, A-204” for “1. A204”, “μg)” for “pg)”
as §4

BMP9 [2] = biological target: T3, BMP9 (Homo sapiens, UniProt Q9UK05); test: A204 cell-based pGL3(CAGA)12 reporter gene assay, signaling by BMP9; details: A204 reporter gene assay
T3 sequence (Q9UK05 320-429): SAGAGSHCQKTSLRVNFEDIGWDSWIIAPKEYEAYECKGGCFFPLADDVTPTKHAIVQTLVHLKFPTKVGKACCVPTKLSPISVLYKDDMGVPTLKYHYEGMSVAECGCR
From the text: as §1, §2, §3
as §1, with “A,” for “A, activin B, GDF8,”, “GDF11,” for “GDF11, BMP9,”, “and BMP9.” for “and BMP10, in comparison to ActRIIB-G1Fc.”, “(Dennler el” for “(Dennler et”, “activin A,” for “activin A.”
as §2, with “1, A-204” for “1. A204”, “μg)” for “pg)”
as §4

BMP9 [3] = biological target: T3, BMP9; test: Biacore-based binding assay (surface plasmon resonance), BMP9; details: SPR 37° C.; for reduction in affinity for BMP9 compared with reduction in affinity for GDF11 or activin A: FIG. 9, compared to Fc fusion with unmodified ActRIIB extracellular domain; for binding to BMP9 compared to unmodified ActRIIB-Fc (in words): compared to ActRIIB-G1Fc / ActRIIB-Fc homodimer
Experimental: (§5) To determine ligand binding profiles of variant ActRIIB-Fc homodimers, a Biacore™-based binding assay was used to compare ligand binding kinetics of certain variant ActRIIB-Fc polypeptides. ActRIIB-Fc polypeptides to be tested were independently captured onto the system using an anti-Fc antibody. Ligands were then injected and allowed to flow over the captured receptor protein. ActRIIB-G1Fc was used as the control polypeptide.
as §5, with “protein.” for “protein. ActRIIB-G1Fc was used as the control polypeptide.”
(§6) A Biacore™-based binding assay was used to compare the ligand binding kinetics of an ActRIIB-Fc:ActRIIB(L79E)-Fc heterodimer with those of unmodified ActRIIB-Fc homodimer. Fusion proteins were captured onto the system using an anti-Fc antibody. Ligands were then injected and allowed to flow over the captured receptor protein at 37° C. Results are summarized in the table below, in which ligand off-rates (kd) most indicative of effective ligand traps are denoted in bold.

Activin B = biological target: T4, Activin B (Homo sapiens, UniProt P09529); test: Biacore-based binding assay (surface plasmon resonance), activin B; details: SPR 37° C.; compared to ActRIIB-G1Fc / ActRIIB-Fc homodimer
T4 sequence (P09529 293-407): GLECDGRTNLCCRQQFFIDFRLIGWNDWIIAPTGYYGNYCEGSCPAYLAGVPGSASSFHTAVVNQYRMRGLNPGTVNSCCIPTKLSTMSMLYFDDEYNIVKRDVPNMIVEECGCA
Experimental: as §5, §6

GDF8 = biological target: T5, GDF8 (Homo sapiens, UniProt O14793); test: Biacore-based binding assay (surface plasmon resonance), GDF8; details: SPR 37° C.; compared to ActRIIB-G1Fc / ActRIIB-Fc homodimer
T5 sequence (O14793 267-375): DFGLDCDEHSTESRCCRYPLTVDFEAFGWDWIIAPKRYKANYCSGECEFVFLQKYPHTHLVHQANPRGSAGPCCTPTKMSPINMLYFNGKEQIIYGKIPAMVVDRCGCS
Experimental: as §5, §6

GDF11 [4] = biological target: T1, GDF11; test: Biacore-based binding assay (surface plasmon resonance), GDF11; details: SPR 37° C.; compared to ActRIIB-G1Fc / ActRIIB-Fc homodimer
Experimental: as §5
as §5, with “protein.” for “protein. ActRIIB-G1Fc was used as the control polypeptide.”
as §6

GDF11 [5] = biological target: T6, GDF11 (UniProt O95390 299-407); test: cell-based or functional assay
T6 construct: also called Growth and differentiation factor-11; BMP11
T6 sequence (looked up): T1 sequence (O95390 299-407)

BMP9 [6] = biological target: T7, BMP9 (UniProt Q9UK05 320-429); test: cell-based or functional assay
T7 sequence (looked up): T3 sequence (Q9UK05 320-429)

K55A: homodimeric ActRIIB-G1Fc fusion with K55A substitution; mature SEQ ID NO: 33
inhibition of GDF11 compared to fusion polypeptide with unmodified ActRIIB extracellular domain (in words) (GDF11 [1]): essentially undiminished inhibition of activin A and GDF11 | inhibition of activin A compared to fusion polypeptide with unmodified ActRIIB extracellular domain (in words) (Activin A): essentially undiminished inhibition of activin A and GDF11 | inhibition of BMP9 compared to fusion polypeptide with unmodified ActRIIB extracellular domain (in words) (BMP9 [2]): less potent inhibition of BMP9 | selectivity of antagonism (activin A and GDF11 over BMP9) compared to unmodified ActRIIB-Fc (BMP9 [2]): more selective antagonists of activin A and GDF11 | reduction in affinity for BMP9 compared with reduction in affinity for GDF11 or activin A (BMP9 [3]): reduce ActRIIB binding affinity for BMP9 more than they reduce ActRIIB affinity for activin A or GDF11 | reduction in affinity for BMP9 compared with reduction in affinity for GDF11 or activin A (BMP9 [3]; listed as ActRIIB(K55A)-Fc): greater reduction in their affinity for BMP9 than for GDF11

F82K-N83R: homodimeric ActRIIB-G1Fc fusion with F82K and N83R substitutions; mature SEQ ID NO: 332
affinity for activin B compared to unmodified ActRIIB-Fc (in words) (Activin B): relatively high affinity for activin B | GDF8 binding compared to unmodified ActRIIB-Fc (in words) (GDF8): significant decrease in GDF8 and GDF11 binding | GDF11 binding compared to unmodified ActRIIB-Fc (in words) (GDF11 [4]): significant decrease in GDF8 and GDF11 binding | binding to BMP9 compared to unmodified ActRIIB-Fc (in words) (BMP9 [3]): decrease in binding to BMP9

F82I-N83R: homodimeric ActRIIB-G1Fc fusion with F82I and N83R substitutions; mature SEQ ID NO: 278
affinity for activin B compared to unmodified ActRIIB-Fc (in words) (Activin B): relatively high affinity for activin B | GDF8 binding compared to unmodified ActRIIB-Fc (in words) (GDF8): significant decrease in GDF8 and GDF11 binding | GDF11 binding compared to unmodified ActRIIB-Fc (in words) (GDF11 [4]): significant decrease in GDF8 and GDF11 binding | binding to BMP9 compared to unmodified ActRIIB-Fc (in words) (BMP9 [3]): decrease in binding to BMP9

R40A (homodimeric ActRIIB-Fc construct) (Fc fusion)
IC50 (ng/ml), A204 CAGA12 luciferase reporter assay (GDF11 [5]): 591 ng/mL | IC50 (ng/ml), A204 CAGA12 luciferase reporter assay (BMP9 [6]): 1210 ng/mL

F82I: homodimeric ActRIIB-G1Fc fusion with F82I substitution; mature SEQ ID NO: 39
inhibition of GDF11 compared to fusion polypeptide with unmodified ActRIIB extracellular domain (in words) (GDF11 [1]): essentially undiminished inhibition of activin A and GDF11 | inhibition of activin A compared to fusion polypeptide with unmodified ActRIIB extracellular domain (in words) (Activin A): essentially undiminished inhibition of activin A and GDF11 | inhibition of BMP9 compared to fusion polypeptide with unmodified ActRIIB extracellular domain (in words) (BMP9 [2]): less potent inhibition of BMP9 | selectivity of antagonism (activin A and GDF11 over BMP9) compared to unmodified ActRIIB-Fc (BMP9 [2]): more selective antagonists of activin A and GDF11 | reduction in affinity for BMP9 compared with reduction in affinity for GDF11 or activin A (BMP9 [3]): reduce ActRIIB binding affinity for BMP9 more than they reduce ActRIIB affinity for activin A or GDF11 | reduction in affinity for BMP9 compared with reduction in affinity for GDF11 or activin A (BMP9 [3]; listed as ActRIIB(F82I)-Fc): greater reduction in their affinity for BMP9 than for GDF11

F82T-N83R: homodimeric ActRIIB-G1Fc fusion with F82T and N83R substitutions; mature SEQ ID NO: 335
affinity for activin B compared to unmodified ActRIIB-Fc (in words) (Activin B): relatively high affinity for activin B | GDF8 binding compared to unmodified ActRIIB-Fc (in words) (GDF8): significant decrease in GDF8 and GDF11 binding | GDF11 binding compared to unmodified ActRIIB-Fc (in words) (GDF11 [4]): significant decrease in GDF8 and GDF11 binding | binding to BMP9 compared to unmodified ActRIIB-Fc (in words) (BMP9 [3]): decrease in binding to BMP9

K74R (homodimeric ActRIIB-Fc construct) (Fc fusion)
IC50 (ng/ml), A204 CAGA12 luciferase reporter assay (GDF11 [5]): 45 ng/mL | IC50 (ng/ml), A204 CAGA12 luciferase reporter assay (BMP9 [6]): 165 ng/mL

K55E: homodimeric ActRIIB-G1Fc fusion with K55E substitution; mature SEQ ID NO: 36
inhibition of GDF11 compared to fusion polypeptide with unmodified ActRIIB extracellular domain (in words) (GDF11 [1]): essentially undiminished inhibition of activin A and GDF11 | inhibition of activin A compared to fusion polypeptide with unmodified ActRIIB extracellular domain (in words) (Activin A): essentially undiminished inhibition of activin A and GDF11 | inhibition of BMP9 compared to fusion polypeptide with unmodified ActRIIB extracellular domain (in words) (BMP9 [2]): less potent inhibition of BMP9 | selectivity of antagonism (activin A and GDF11 over BMP9) compared to unmodified ActRIIB-Fc (BMP9 [2]): more selective antagonists of activin A and GDF11 | reduction in affinity for BMP9 compared with reduction in affinity for GDF11 or activin A (BMP9 [3]): reduce ActRIIB binding affinity for BMP9 more than they reduce ActRIIB affinity for activin A or GDF11 | reduction in affinity for BMP9 compared with reduction in affinity for GDF11 or activin A (BMP9 [3]; listed as ActRIIB(K55E)-Fc): greater reduction in their affinity for BMP9 than for GDF11

F82W/N83A (homodimeric ActRIIB-Fc construct) (Fc fusion)
IC50 (ng/ml), A204 CAGA12 luciferase reporter assay (GDF11 [5]): 389 ng/mL | IC50 (ng/ml), A204 CAGA12 luciferase reporter assay (BMP9 [6]): 40000 ng/mL
